Reference: publication PMC2923189, “An Oligopeptide Transporter of Mycobacterium tuberculosis Regulates Cytokine Release and Apoptosis of Infected Macrophages” (PLoS ONE, 2010)

What was measured:
Assay in all cases: radioligand binding
[1] = molecular target: OppAMTB mutant N230G (Mycobacterium tuberculosis) (UniProt P9WGU5)
[2] = molecular target: OppAMTB mutant D494N (Mycobacterium tuberculosis) (UniProt P9WGU5)
[3] = molecular target: OppAMTB mutant N110A (Mycobacterium tuberculosis) (UniProt P9WGU5)
[4] = molecular target: OppAMTB mutant F496D (Mycobacterium tuberculosis) (UniProt P9WGU5)
[5] = molecular target: OppAMTB mutant G109S (Mycobacterium tuberculosis) (UniProt P9WGU5)

Measured: loss of binding activity against wild type

bradykinin (nonapeptide)
> 50%: [1] | [2] | [3] | [4] | [5]

glutathione (tripeptide)
> 50%: [1] | [2] | [3] | [4] | [5]
